Assay results: US20030028002A1, “Cyclin D binding factor, and uses thereof” (published 2003)
Changes are numbered by the printed parent chain.

Columns and labels:
[1] = target: T1, DMP1 expressed in 293T cells (Mus musculus) (UniProt Q8CE22); experiment: cell_activity
T1 sequence: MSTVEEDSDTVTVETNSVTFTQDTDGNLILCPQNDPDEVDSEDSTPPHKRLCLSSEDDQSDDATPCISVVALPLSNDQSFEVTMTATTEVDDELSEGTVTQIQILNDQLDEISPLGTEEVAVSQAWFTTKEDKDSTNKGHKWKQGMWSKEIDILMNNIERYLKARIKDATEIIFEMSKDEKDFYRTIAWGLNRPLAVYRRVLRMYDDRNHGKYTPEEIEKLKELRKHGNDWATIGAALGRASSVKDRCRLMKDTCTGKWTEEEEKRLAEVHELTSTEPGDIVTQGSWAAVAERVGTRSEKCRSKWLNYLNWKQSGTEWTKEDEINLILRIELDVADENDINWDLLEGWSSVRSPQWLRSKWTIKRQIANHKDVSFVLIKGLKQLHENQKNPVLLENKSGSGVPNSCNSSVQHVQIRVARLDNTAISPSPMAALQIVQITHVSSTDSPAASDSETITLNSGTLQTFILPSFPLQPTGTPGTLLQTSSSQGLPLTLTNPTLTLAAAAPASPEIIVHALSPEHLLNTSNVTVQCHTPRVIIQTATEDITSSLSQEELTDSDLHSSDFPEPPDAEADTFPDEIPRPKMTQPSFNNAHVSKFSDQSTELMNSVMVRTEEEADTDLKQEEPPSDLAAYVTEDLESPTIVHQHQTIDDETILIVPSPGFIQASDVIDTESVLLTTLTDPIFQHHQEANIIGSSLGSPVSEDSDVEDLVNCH

[2] = target: T2, DMP1 M11 (K319E) K319E (Mus musculus) (UniProt Q8CE22); experiment: EMSA; conditions: very faint band
T2 sequence: T1 sequence with K320E

[3] = target: T3, DMP1 M11 (K319E) expressed in NIH-3T3 cells K319E (Mus musculus) (UniProt Q8CE22); experiment: cell_activity; conditions: BS2 luciferase reporter
T3 sequence: T1 sequence with K320E

[4] = target: T4, DMP1 expressed in NIH-3T3 cells (Mus musculus) (UniProt Q8CE22); experiment: cell_activity; conditions: BS2 luciferase reporter
T4 sequence: T1 sequence

cyclin D3 [5] = target: T5, cyclin D3 (mouse, UniProt P30282 1-292); experiment: coinfected Sf9 cells, coprecipitation
T5 construct: 35S-labelled in vitro translation product in the pull-down; baculovirus product in Sf9 cells
T5 sequence (looked up): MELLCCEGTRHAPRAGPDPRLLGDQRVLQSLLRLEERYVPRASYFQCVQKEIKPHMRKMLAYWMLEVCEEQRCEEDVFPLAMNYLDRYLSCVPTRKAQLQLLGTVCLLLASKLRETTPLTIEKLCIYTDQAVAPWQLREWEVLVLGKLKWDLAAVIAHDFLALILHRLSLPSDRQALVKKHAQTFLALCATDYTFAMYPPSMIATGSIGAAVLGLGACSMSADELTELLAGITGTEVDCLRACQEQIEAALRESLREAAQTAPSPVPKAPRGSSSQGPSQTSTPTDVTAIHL

cyclin D2 [6] = target: T6, cyclin D2 (mouse, UniProt P30280 1-289); experiment: coinfected Sf9 cells, coprecipitation
T6 construct: 35S-labelled in vitro translation product in the pull-down; baculovirus product in Sf9 cells
T6 sequence (P30280 whole entry): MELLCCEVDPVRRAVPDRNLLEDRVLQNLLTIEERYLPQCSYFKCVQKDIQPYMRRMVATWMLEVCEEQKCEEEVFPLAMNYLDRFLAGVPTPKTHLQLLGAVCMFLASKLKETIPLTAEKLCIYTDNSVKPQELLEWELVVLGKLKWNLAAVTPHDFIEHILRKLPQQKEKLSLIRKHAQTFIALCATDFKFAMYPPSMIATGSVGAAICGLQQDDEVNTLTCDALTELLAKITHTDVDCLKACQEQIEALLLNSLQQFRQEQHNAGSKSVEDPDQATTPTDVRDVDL

cyclin D2-DMP1 complex = target: T7, cyclin D2-DMP1 complex (mouse, UniProt P30280 1-289); experiment: coinfected Sf9 cells, immunoprecipitation with antiserum to DMP1
T7 construct: Complex formed in coinfected Sf9 cells
T7 sequence (P30280 whole entry, one chain of several): as the sequence (P30280 whole entry) above

cyclin D1 [7] = target: T8, cyclin D1 (mouse, UniProt P25322 1-295); experiment: anti-Flag immunoprecipitation from Sf9 lysates, Western blot for cyclin D1
T8 construct: 35S-labelled in vitro translation product in the pull-down; baculovirus product in Sf9 cells
T8 sequence (P25322 whole entry): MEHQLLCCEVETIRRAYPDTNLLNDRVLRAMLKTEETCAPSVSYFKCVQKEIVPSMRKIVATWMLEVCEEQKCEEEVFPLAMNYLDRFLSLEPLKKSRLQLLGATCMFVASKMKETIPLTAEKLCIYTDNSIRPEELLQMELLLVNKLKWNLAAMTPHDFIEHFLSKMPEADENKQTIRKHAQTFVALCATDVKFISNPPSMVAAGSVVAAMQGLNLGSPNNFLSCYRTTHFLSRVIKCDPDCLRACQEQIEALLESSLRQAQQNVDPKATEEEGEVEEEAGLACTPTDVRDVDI
From the text: The series of DMP1 deletion mutants and the K319E point mutant were then used to determine the cyclin D binding domain of DMP1. Expression vectors encoding murine wild-type DMP1, the corresponding deletion mutations, or K319E (i. e., wildtype DMP1 and M1-M11, defined in FIG. 10, Table 1) were cotransfected with an expression vector encoding cyclin D1 into SF9 cells. Wildtype DMP1 and M1-M11 were expressed containing Flag-tags. SF9 lysates were immunoprecipitated with an antibody raised against the Flag-tag. The immunoprecipitates were resolved individually by gel electrophoresis, and then Western blotted with an antibody raised against cyclin D1. […] Therefore, the cyclin D1 binding domain is missing in the M9 deletion mutant. […] Therefore, deletion of the N-terminal domain of DMP1 (i.e., amino acids 1-223) abrogates its ability to interact with D-type cyclins, and thus, the region of DMP1 from residues 1-223 contains a specific cyclin D interaction motif required for D-type cyclin-DMP1 association.

cyclin D1 [8] = target: T8, cyclin D1; experiment: GST pull-down of 35S-labelled in vitro translated cyclin
Protocol: (§1) Because DMP1 interacted with cyclin D2 in yeast, the ability of a glutathione S-transferase (GST)-DMP1 fusion protein to bind D-type cyclins in vitro is examined. GST is fused to residues 176-761 of DMP1 (in lieu of GAL4 in the original cDNA clone), and the bacterially synthesized recombinant protein is incubated with [³⁵S]methionine-labeled D-type cyclins prepared by transcription and translation in vitro. As a positive control, GST-RB which can specifically bind D-type cyclins in this assay is used (15). Bound cyclins recovered on washed glutathione-Sepharose beads are analyzed by electrophoresis on denaturing gels. […] GST-DMP1 is less efficient than GST-RB in binding cyclins D2 and D3 (˜4-fold less binding), and under these conditions, an interaction with D1 is not detected (lanes 3, 7, 11). No labeled proteins bind to GST alone (lanes 4, 8, 12), and neither cyclin A nor cyclin E bind to GST-RB or to GST-DMP1. A cyclin D2 mutant disrupted in an amino-terminal Leu-X-Cys-X-Glu pentapeptide that is required for high efficiency GST-RB binding is not detectably compromised in its interaction with GST-DMP1 (negative data not shown); in agreement, DMP1 bears no homology to RB or to RB-related family members (p107 and p130).

cyclin D3 [9] = target: T5, cyclin D3; experiment: GST pull-down of 35S-labelled in vitro translated cyclin on glutathione-Sepharose, gel autoradiography
Protocol: as §1

cyclin D2 [10] = target: T6, cyclin D2; experiment: as above
Protocol: as §1

D-type cyclins = experiment: coexpression in Sf9 cells, coprecipitation (FIG. 3)

For “AATTGACCCGGATGTAGGTACGC (double strand) [BS1]”, which activity (fold activation) ([1]; 6x BS1 luciferase reporter) is on record?
The activity (fold activation) was 7.

How did the binding signal (% of wild type) [2] turn out when “AATTGACCCGTATGTAGGTACGC (double strand) [BS2]” was run?
The binding signal (% of wild type) was 2.

And the activity (fold activation) [3]?
The activity (fold activation) was 1.1.

And the activity (fold activation) ([1]; 8x BS2 luciferase reporter)?
The activity (fold activation) was 20.

And the activity (fold activation) [4]?
Its activity (fold activation) is 8.4.

How did the binding ratio of cyclin to RB (cyclin D3 [5]) turn out when “RB (retinoblastoma protein) coexpressed in Sf9 cells” was run?
Its binding ratio of cyclin to RB is 1 ratio (1:1).

And the binding ratio of cyclin to RB (cyclin D2 [6])?
Its binding ratio of cyclin to RB is 1 ratio (1:1).

B1: catalytically inactive CDK4 mutant (enzyme, mouse, UniProt P30285 1-303, looked up)
chain: MAATRYEPVAEIGVGAYGTVYKARDPHSGHFVALMSVRVPNGGAAGGGLPVSTVREVALLRRLEAFEHPNVVRLMDVCATSRTDRDIKVTLVFEHIDQDLRTYLDKAPPPGLPVETIKDLMRQFLSGLDFLHANCIVHRDLKPENILVTSNGTVKLADFGLARIYSYQMALTPVVVTLWYRAPEVLLQSTYATPVDMWSVGCIFAEMFRRKPLFCGNSEADQLGKIFDLIGLPPEDDWPREVSLPRGAFAPRGPRPVQSVVPEMEESGAQLLLEMLTFNPHKRISAFRALQHSYLHKEESDAE
notes: also called mutant CDK4
Does B1 bind (cyclin D2-DMP1 complex)?
Result: no binding

B2: Flag-tagged DMP1 deletion mutant M9 (amino acids 234-761) (other)
chain: KLKELRIKHGNDWATIGAALGRSASSVKDRCRLMKDTCNTGKWTEEEEKRLAEVVHELTSTEPGDIVTQGVSWAAVAERVGTRSEKQCRSKWLNYLNWKQSGGTEWTKEDEINLILRIAELDVADENDINWDLLAEGWSSVRSPQWLRSKWWTIKRQIANHKDVSFPVLIKGLKQLHENQKNNPVLLENKSGSGVPNSNCNSSVQHVQIRVARLEDNTAISPSPMAALQIPVQITHVSSTDSPAASADSETITLNSGTLQTFEILPSFPLQPTGTPGTYLLQTSSSQGLPLTLTTNPTLTLAAAAPASPEQIIVHALSPEHLLNTSDNVTVQCHTPRVIIQTVATEDITSSLSQEELTVDSDLHSSDFPEPPDALEADTFPDEIPRPKMTIQPSFNNAHVSKFSDQNSTELMNSVMVRTEEEIADTDLKQEEPPSDLASAYVTEDLESPTIVHQVHQTIDDETILIVPSPHGFIQASDVIDTESVLPLTTLTDPIFQHHQEASNIIGSSLGSPVSEDSKDVEDLVNCH
notes: not shown: Flag-tag
Does B2 bind (cyclin D1 [7])?
Result: no binding

B3: GST-DMP1 fusion protein (GST fused to residues 176-761 of DMP1) (other)
chain: GIKDATEIIFEMSKDERKDFYRTIAWGLNRPLFAVYRRVLRMYDDRNHVGKYTPEEIEKLKELRIKHGNDWATIGAALGRSASSVKDRCRLMKDTCNTGKWTEEEEKRLAEVVHELTSTEPGDIVTQGVSWAAVAERVGTRSEKQCRSKWLNYLNWKQSGGTEWTKEDEINLILRIAELDVADENDINWDLLAEGWSSVRSPQWLRSKWWTIKRQIANHKDVSFPVLIKGLKQLHENQKNNPVLLENKSGSGVPNSNCNSSVQHVQIRVARLEDNTAISPSPMAALQIPVQITHVSSTDSPAASADSETITLNSGTLQTFEILPSFPLQPTGTPGTYLLQTSSSQGLPLTLTTNPTLTLAAAAPASPEQIIVHALSPEHLLNTSDNVTVQCHTPRVIIQTVATEDITSSLSQEELTVDSDLHSSDFPEPPDALEADTFPDEIPRPKMTIQPSFNNAHVSKFSDQNSTELMNSVMVRTEEEIADTDLKQEEPPSDLASAYVTEDLESPTIVHQVHQTIDDETILIVPSPHGFIQASDVIDTESVLPLTTLTDPIFQHHQEASNIIGSSLGSPVSEDSKDVEDLVNCH
notes: Made in bacteria, held on glutathione-Sepharose beads; not shown: glutathione S-transferase encoded by pGEX-3X (Pharmacia)
Does B3 bind (cyclin D1 [8])?
Result: no binding

What about the “fold less binding than GST-RB” value (cyclin D3 [9]) of the same molecule?
Its value is ~4 fold less binding than GST-RB.

And the “fold less binding than GST-RB” value (cyclin D2 [10])?
The value was ~4 fold less binding than GST-RB.

B4: DMP1 (cyclin D-binding myb-like protein), murine, full length (protein)
chain: MSTVEEDSDTVTVETVNSVTFTQDTDGNLILHCPQNDPDEVDSEDSTEPPHKRLCLSSEDDQSIDDATPCISVVALPLSENDQSFEVTMTATTEVADDELSEGTVTQIQILQNDQLDEISPLGTEEVSAVSQAWFTTKEDKDSLTNKGHKWKQGMWSKEEIDILMNNIERYLKARGIKDATEIIFEMSKDERKDFYRTIAWGLNRPLFAVYRRVLRMYDDRNHVGKYTPEEIEKLKELRIKHGNDWATIGAALGRSASSVKDRCRLMKDTCNTGKWTEEEEKRLAEVVHELTSTEPGDIVTQGVSWAAVAERVGTRSEKQCRSKWLNYLNWKQSGGTEWTKEDEINLILRIAELDVADENDINWDLLAEGWSSVRSPQWLRSKWWTIKRQIANHKDVSFPVLIKGLKQLHENQKNNPVLLENKSGSGVPNSNCNSSVQHVQIRVARLEDNTAISPSPMAALQIPVQITHVSSTDSPAASADSETITLNSGTLQTFEILPSFPLQPTGTPGTYLLQTSSSQGLPLTLTTNPTLTLAAAAPASPEQIIVHALSPEHLLNTSDNVTVQCHTPRVIIQTVATEDITSSLSQEELTVDSDLHSSDFPEPPDALEADTFPDEIPRPKMTIQPSFNNAHVSKFSDQNSTELMNSVMVRTEEEIADTDLKQEEPPSDLASAYVTEDLESPTIVHQVHQTIDDETILIVPSPHGFIQASDVIDTESVLPLTTLTDPIFQHHQEASNIIGSSLGSPVSEDSKDVEDLVNCH
modifications: multiple phosphorylated forms when made in Sf9 cells (sites not given)
With B4 as the molecule, how does the percent of DMP1 molecules in stable complexes with D-type cyclins (D-type cyclins) read?
Its percent of DMP1 molecules in stable complexes with D-type cyclins is < 15%.
